Data published in publication PMC3266953 (Scientific Reports, 2012).

Biological target: the molecule itself
Assay: crystal structure

B1: NcdG347D, truncated dimeric protein (MGSM-H293-K700) (domain or fragment)
chain: MGSMHAALSTEVVHLRQRTEELLRCNEQQAAELETCKEQLFQSNMERKELHNTVMDLRDNIRVFCRIRPPLESEENRMCCTWTYHDESTVELQSIDAQAKSKMGQQIFSFDQVFHPLSSQSDIFEMVSPLIQSALDGYNICIFAYGQTGSGKTYTMDGVPESVGVIPRTVDLLFDSIRGYRNLGWEYEIKATFLEIYNEVLYDLLSNEQKDMEIRMAKNNKNDIYVSNITEETVLDPNHLRHLMHTAKMNRATASTAGNERSSRSHAVTKLELIGRHAEKQEISVGSINLVDLAGSESPKTSTRMTETKNINRSLSELTNVILALLQKQDHIPYRNSKLTHLLMPSLGGNSKTLMFINVSPFQDCFQESVKSLRFAASVNSCKMTKAKRNRYLNNSVANSSTQSNNSGSFDK
  stoichiometry N: 2
